Experimental findings from patent US7456007 are described below.

In data set [1] the target is Swedish mutant P13-P5′ peptide with P1′ aspartic acid replaced with a valine (D→V), P05067.
Data set [2] deals with Swedish mutant P13-P5′ peptide with P1′ aspartic acid replaced with a leucine (D→L), P05067.
Sequence of Swedish mutant P13-P5′ peptide with P1′ aspartic acid replaced with a leucine (D→L), P05067 (P05067 whole entry, looked up, change not shown, tested part not stated): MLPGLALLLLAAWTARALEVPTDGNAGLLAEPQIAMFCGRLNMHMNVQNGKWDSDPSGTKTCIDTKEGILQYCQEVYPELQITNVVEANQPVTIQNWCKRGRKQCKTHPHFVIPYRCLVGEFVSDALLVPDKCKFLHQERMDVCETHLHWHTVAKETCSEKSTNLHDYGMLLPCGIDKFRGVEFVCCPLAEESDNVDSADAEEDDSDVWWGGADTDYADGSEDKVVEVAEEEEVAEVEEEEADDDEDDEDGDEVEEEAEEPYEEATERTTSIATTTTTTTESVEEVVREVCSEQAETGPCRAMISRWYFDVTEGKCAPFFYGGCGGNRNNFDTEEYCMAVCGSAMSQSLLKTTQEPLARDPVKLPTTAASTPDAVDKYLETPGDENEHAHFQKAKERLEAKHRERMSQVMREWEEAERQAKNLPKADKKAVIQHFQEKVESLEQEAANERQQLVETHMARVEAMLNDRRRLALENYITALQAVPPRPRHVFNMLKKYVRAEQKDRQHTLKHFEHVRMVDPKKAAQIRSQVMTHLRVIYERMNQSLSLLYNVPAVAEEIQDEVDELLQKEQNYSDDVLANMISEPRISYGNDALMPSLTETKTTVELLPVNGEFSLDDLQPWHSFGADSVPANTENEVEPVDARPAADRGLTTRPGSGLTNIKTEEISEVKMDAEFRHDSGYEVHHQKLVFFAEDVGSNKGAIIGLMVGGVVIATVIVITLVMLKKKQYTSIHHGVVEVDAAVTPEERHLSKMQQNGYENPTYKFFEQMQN

Sequence of Swedish mutant P13-P5′ peptide with P1′ aspartic acid replaced with a valine (D→V), P05067 (P05067 whole entry, looked up, change not shown, tested part not stated): as above

B1: naturally occurring β-secretase purified from human brain (protein)
chain: ETDEEPEEPGRRGSFVEMVDNLRGKSGQGYYVEMTVGSPPQTLNILVDTGSSNFAVGAAPHPFLHRYYQRQLSSTYRDLRKGVYVPYTQGKWEGELGTDLVSIPHGPNVTVRANIAAITESDKFFINGSNWEGILGLAYAEIARPDDSLEPFFDSLVKQTHVPNLFSLQLCGAGFPLNQSEVLASVGGSMIIGGIDHSLYTGSLWYTPIRREWYYEVIIVRVEINGQDLKMDCKEYNYDKSIVDSGTTNLRLPKKVFEAAVKSIKAASSTEKFPDGFWLGEQLVCWQAGTTPWNIFPVISLYLMGEVTNQSFRITILPQQYLRPVEDVATSQDDCYKFAISQSSTGTVMGAVIMEGFYVVFDRARKRIGFAVSACHVHDEFRTAAVEGPFVTLDMEDCGYNIPQTDESTLMTIAYVMAAICALFMLPLCLMVCQWRCLRCLRQQHDDFADDISLLK
In the case of B1, the “substrate concentration dependence of hydrolysis by brain β-secretase” value in data set [1] and in data set [2] was “show saturation at a lower concentration than the parent Swedish peptide” throughout.
